15 variants from the RNAGym collection of RNA variant scans (doi:10.1093/molbev/msab373) can be followed below.

B1: Azoarcus group I ribozyme (parent)
chain: GUGCCUUGCGCCGGGAAACCACGCAAGGGAUGGUGUCAAAUUCGGCGAAACCUAAGCGCCCGCCCGGGCGUAUGGCAACGCCGAGCCAAGCUUCGGCGCCUGCGCCGAUGAAGGUGUAGAGACUAGACGGCACCCACCUAAGGCAAACGCUAUGGUGAAGGCAUAGUCCAGGGAGUGGCGAAAGUCACACAAACCGG

In the data set the parent is B1. Description: reverse-splicing fitness (ratio to wild type); higher = more active; in vitro selection; Mg2+ level not given. The gist of the method:
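An in vitro group I ribozyme library with randomized positions was T7-transcribed and gel-purified. In triplicate, 10 pmol RNA in EPPS pH 7.5 was reacted with 50 pmoles of a 30-nt RNA substrate for 1 h at 37 °C across several added MgCl2 levels (1–48 mM), then stopped with EDTA. Products were reverse transcribed from a substrate-complementary primer, PCR-amplified and sequenced (HiSeq 4000). Fitness is a variant's read proportion after selection over that before, normalised to wild type.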
Consider GUGCCUUGCGCCGGGAAACCACGCAAGGGAUGGUGUCAAAUUCGGCGAAACCUAAGCGCCCGCCCGGGCGUAUGGCAACGCAGAGCCAAGCUUCGGCGCCUGCGCCGAUGAAGGUGUAGAGACUAGACGGCACCCACCUAAGGCUAACGUUAUGGUGAAGGCAUAGUCGAGGGAGCGGCGAAAGUCACACAAACCGG [C82A A145U C150U C169G U176C], for which the reverse-splicing fitness amounted to 0.013.

As for GUGCCUUGCGCCGGGAAACCACGCAAGGGAUGGUGUCAAAUUCGGCGAAACCUAAGCGCCCGCCCGGGCGUAUGGCAACGCAGAGCCAAGCUUCGGCGCCUGCGCCGAUGAAGGUGUAGAGACUAGACGGCACCCACCUAAGGCUAACGUUAUGGUGAAGGCAUAGUCGAGGGAGGGGCGAAAGUCACACAAACCGG [C82A A145U C150U C169G U176G], the reverse-splicing fitness was determined as 0.00539.

As for GUGCCUUGCGCCGGGAAACCACGCAAGGGAUGGUGUCAAAUUCGGCGAAACCUAAGCGCCCGCCCGGGCGUAUGGCAACGCAGAGCCAAGCUUCGGCGCCUGCGCCGAUGAAGGUGUAGAGACUAGACGGCACCCACCUAAGGCUAACGUUAUGGUGAAGGCAUAGUCGAGGGAGUGGCGAAAGUCACACAAACCGG [C82A A145U C150U C169G], the reverse-splicing fitness was 0.00961.

GUGCCUUGCGCCGGGAAACCACGCAAGGGAUGGUGUCAAAUUCGGCGAAACCUAAGCGCCCGCCCGGGCGUAUGGCAACGCAGAGCCAAGCUUCGGCGCCUGCGCCGAUGAAGGUGUAGAGACUAGACGGCACCCACCUAAGGCUAACGUUAUGGUGAAGGCAUAGUCUAGGGAGUGGCGAAAGUCACACAAACCGG [C82A A145U C150U C169U]: the reverse-splicing fitness amounted to 0.0127.

As for GUGCCUUGCGCCGGGAAACCACGCAAGGGAUGGUGUCAAAUUCGGCGAAACCUAAGCGCCCGCCCGGGCGUAUGGCAACGCAGAGCCAAGCUUCGGCGCCUGCGCCGAUGAAGGUGUAGAGACUAGACGGCACCCACCUAAGGCUAACGUUAUGGUGAAGGCAUAGUCAAGGGAGUGGCGAAAGUCACACAAACCGG [C82A A145U C150U C169A], the reverse-splicing fitness amounted to 0.00956.

Regarding GUGCCUUGCGCCGGGAAACCACGCAAGGGAUGGUGUCAAAUUCGGCGAAACCUAAGCGCCCGCCCGGGCGUAUGGCAACGCAGAGCCAAGCUUCGGCGCCUGCGCCGAUGAAGGUGUAGAGACUAGACGGCACCCACCUAAGGCUAACGUUAUGGUGAAGGCAUAGUCCAGGGAGUGGCGAAAGUCACACAAACCGG [C82A A145U C150U], the reverse-splicing fitness is 0.449.

Turning to GUGCCUUGCGCCGGGAAACCACGCAAGGGAUGGUGUCAAAUUCGGCGAAACCUAAGCGCCCGCCCGGGCGUAUGGCAACGCAGAGCCAAGCUUCGGCGCCUGCGCCGAUGAAGGUGUAGAGACUAGACGGCACCCACCUAAGGCUAACGUUAUGGUGAAGGCAUAGUCAAGGGAGCGGCGAAAGUCACACAAACCGG [C82A A145U C150U C169A U176C], the reverse-splicing fitness is 0.00936.

Consider GUGCCUUGCGCCGGGAAACCACGCAAGGGAUGGUGUCAAAUUCGGCGAAACCUAAGCGCCCGCCCGGGCGUAUGGCAACGCAGAGCCAAGCUUCGGCGCCUGCGCCGAUGAAGGUGUAGAGACUAGACGGCACCCACCUAAGGCUAACGUUAUGGUGAAGGCAUAGUCAAGGGAGAGGCGAAAGUCACACAAACCGG [C82A A145U C150U C169A U176A], for which the reverse-splicing fitness came to 0.0121.

With GUGCCUUGCGCCGGGAAACCACGCAAGGGAUGGUGUCAAAUUCGGCGAAACCUAAGCGCCCGCCCGGGCGUAUGGCAACGCAGAGCCAAGCUUCGGCGCCUGCGCCGAUGAAGGUGUAGAGACUAGACGGCACCCACCUAAGGCUAACGUUAUGGUGAAGGCAUAGUCAAGGGAGGGGCGAAAGUCACACAAACCGG [C82A A145U C150U C169A U176G], the reverse-splicing fitness came out at 0.00602.

With GUGCCUUGCGCCGGGAAACCACGCAAGGGAUGGUGUCAAAUUCGGCGAAACCUAAGCGCCCGCCCGGGCGUAUGGCAACGCAGAGCCAAGCUUCGGCGCCUGCGCCGAUGAAGGUGUAGAGACUAGACGGCACCCACCUAAGGCUAACGCUAUGGUGAAGGCAUAGUCUAGGGAGAGGCGAAAGUCACACAAACCGG [C82A A145U C169U U176A], the reverse-splicing fitness amounted to 0.0117.

For GUGCCUUGCGCCGGGAAACCACGCAAGGGAUGGUGUCAAAUUCGGCGAAACCUAAGCGCCCGCCCGGGCGUAUGGCAACGCAGAGCCAAGCUUCGGCGCCUGCGCCGAUGAAGGUGUAGAGACUAGACGGCACCCACCUAAGGCUAACGCUAUGGUGAAGGCAUAGUCUAGGGAGCGGCGAAAGUCACACAAACCGG [C82A A145U C169U U176C], the reverse-splicing fitness came out at 0.0127.

In the case of GUGCCUUGCGCCGGGAAACCACGCAAGGGAUGGUGUCAAAUUCGGCGAAACCUAAGCGCCCGCCCGGGCGUAUGGCAACGCAGAGCCAAGCUUCGGCGCCUGCGCCGAUGAAGGUGUAGAGACUAGACGGCACCCACCUAAGGCUAACGCUAUGGUGAAGGCAUAGUCUAGGGAGGGGCGAAAGUCACACAAACCGG [C82A A145U C169U U176G], the reverse-splicing fitness is 0.00434.

Regarding GUGCCUUGCGCCGGGAAACCACGCAAGGGAUGGUGUCAAAUUCGGCGAAACCUAAGCGCCCGCCCGGGCGUAUGGCAACGCAGAGCCAAGCUUCGGCGCCUGCGCCGAUGAAGGUGUAGAGACUAGACGGCACCCACCUAAGGCUAACGCUAUGGUGAAGGCAUAGUCGAGGGAGAGGCGAAAGUCACACAAACCGG [C82A A145U C169G U176A], the reverse-splicing fitness turned out to be 0.0105.

Take GUGCCUUGCGCCGGGAAACCACGCAAGGGAUGGUGUCAAAUUCGGCGAAACCUAAGCGCCCGCCCGGGCGUAUGGCAACGCAGAGCCAAGCUUCGGCGCCUGCGCCGAUGAAGGUGUAGAGACUAGACGGCACCCACCUAAGGCUAACGCUAUGGUGAAGGCAUAGUCGAGGGAGGGGCGAAAGUCACACAAACCGG [C82A A145U C169G U176G]: the reverse-splicing fitness is 0.00461.

Turning to GUGCCUUGCGCCGGGAAACCACGCAAGGGAUGGUGUCAAAUUCGGCGAAACCUAAGCGCCCGCCCGGGCGUAUGGCAACGCAGAGCCAAGCUUCGGCGCCUGCGCCGAUGAAGGUGUAGAGACUAGACGGCACCCACCUAAGGCUAACGCUAUGGUGAAGGCAUAGUCGAGGGAGCGGCGAAAGUCACACAAACCGG [C82A A145U C169G U176C], the reverse-splicing fitness was found to be 0.0127.
